Test [1] deals with T1, recombinant HLA-DQ8/gliadin peptide (human).
T1 chain 1: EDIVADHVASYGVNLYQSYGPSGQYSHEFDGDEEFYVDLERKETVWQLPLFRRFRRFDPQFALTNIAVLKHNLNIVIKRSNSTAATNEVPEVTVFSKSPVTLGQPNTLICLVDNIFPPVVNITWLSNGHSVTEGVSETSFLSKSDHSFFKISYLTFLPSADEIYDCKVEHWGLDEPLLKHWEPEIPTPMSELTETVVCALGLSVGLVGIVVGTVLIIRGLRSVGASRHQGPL
T1 chain 2: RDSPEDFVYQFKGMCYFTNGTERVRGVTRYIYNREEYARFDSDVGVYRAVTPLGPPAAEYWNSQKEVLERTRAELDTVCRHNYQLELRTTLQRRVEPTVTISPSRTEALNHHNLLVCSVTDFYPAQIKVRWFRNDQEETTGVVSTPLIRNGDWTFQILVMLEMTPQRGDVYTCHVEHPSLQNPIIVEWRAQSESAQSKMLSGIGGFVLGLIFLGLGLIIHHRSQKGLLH
The test is described as follows: SPR Biacore T200, 37 C, pH 7.4; antibody captured by anti-human Fc, pMHC injected; 1:1 model. The method, then: The affinity of the anti-HLA-DQ2.5/8 antibodies for binding to human HLA-DQ2.5/gliadin peptide and HLA-DQ8/gliadin peptide at pH 7.4 was determined at 37 degrees C. using the Biacore T200 instrument (GE Healthcare). Anti-human Fc (GE Healthcare) was immobilized onto all flow cells of a CM4 sensor chip using an amine coupling kit (GE Healthcare). All antibodies and analytes were prepared in ACES, pH 7.4 containing 20 mM ACES, 150 mM NaCl, 0.05% Tween 20, 0.005% NaN₃. Each antibody was captured onto the sensor surface by anti-human Fc. Antibody capture levels were aimed at 200 resonance units (RUs). A recombinant human HLA-DQ2.5/gliadin peptide was injected at […] prepared by four-fold serial dilution, followed by dissociation, whereas a recombinant human HLA-DQ8/gliadin peptide was injected at 50 to 200 nM prepared by four-fold serial dilution, followed by dissociation. The sensor surface was regenerated each cycle with 3M MgCl₂. Binding affinity was determined by processing and fitting the data to a 1:1 binding model using the Biacore T200 Evaluation software, version 2.0 (GE Healthcare). A commercially available antibody (SPV-L3) was tested as comparison.
(In SPR one partner is held on a chip, and binding of the other changes the refractive index at the surface.)

Test [2] has as its target T1, recombinant HLA-DQ8/gliadin peptide. The test is described as follows: bead-based flow cytometry: HLA-DQ8/gliadin peptide on beads, antibody titrated, blocking of SP3.4 TCR-PE binding [panel DQ8/SP3.4 TCR neutralization]. The method, then: Streptavidin-coated yellow particles (Spherotech, SVFB-2552-6K) were incubated in blocking buffer (2% BSA in PBS) for 30 minutes with shaking at room temperature. After centrifugation and aspiration of the supernatant, 0.167 micro g/mL of soluble […] was then added as 1.2E+4 beads/micro L solution and immobilized for 60 minutes with shaking at room temperature in 96 well plates (Sigma Aldrich, Cat No. M2686). […] The final concentration of HLA-DQ8/gliadin peptide was 0.075 micro g/mL. The plates were washed with blocking buffer, and serially diluted anti-HLA-DQ2.5/8 antibodies were added and incubated for 60 minutes with shaking at room temperature. […] Data acquisition was performed on LSR Fortessa (Becton Dickinson), followed by analysis using the FlowJo software (Tree Star) and the GraphPad Prism software (GraphPad).
A general note: A flow cytometer gives signals particle by particle.

Test [3] concerns the target T2, cynomolgus monkey MHC-DQ allele #1 (MHC DQA1*M2-1, MHC DQB1*M2-1) on Ba/F3 cells (cynomolgus monkey).
T2 construct: also called Ba/F3-cynoDQ C1; cynoDQ C1
T2 MHC II alpha: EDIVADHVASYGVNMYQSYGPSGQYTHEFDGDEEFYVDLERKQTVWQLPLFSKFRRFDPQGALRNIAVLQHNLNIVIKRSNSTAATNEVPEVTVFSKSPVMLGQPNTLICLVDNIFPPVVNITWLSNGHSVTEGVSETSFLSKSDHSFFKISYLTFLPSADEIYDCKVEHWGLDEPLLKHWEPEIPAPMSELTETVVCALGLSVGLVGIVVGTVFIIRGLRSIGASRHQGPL
T2 MHC II beta: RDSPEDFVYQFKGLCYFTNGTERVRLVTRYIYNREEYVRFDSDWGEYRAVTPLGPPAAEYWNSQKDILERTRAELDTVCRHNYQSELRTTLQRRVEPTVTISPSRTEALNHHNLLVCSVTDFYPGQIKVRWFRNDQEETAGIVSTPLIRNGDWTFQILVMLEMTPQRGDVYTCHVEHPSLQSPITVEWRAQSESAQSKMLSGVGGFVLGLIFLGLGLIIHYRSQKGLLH
The test is described as follows: FACS on Ba/F3-cynoDQ C1 cells, PE-labelled anti-human IgG secondary [panel Ba/F3-cynoDQ C1]. The method, then: (§1) Binding of antiHLA-DQ2.5/8 antibodies to HLA-DQ2.5-expressing Ba/F3 cells (Ba/F3-HLA-DQ2.5), Ba/F3-HLA-DQ8, Ba/F3-HLA-DR, Ba/F3-HLA-DP, Ba/F3-cynoDQ C1, Ba/F3-cynoDQ C2, and Ba/F3-cynoDQ C3 was tested.
(§2) Anti-HLA-DQ2.5/8 antibodies were incubated with each cell line for 30 minutes at room temperature and washed with FACS buffer (2% FBS, 2 mM EDTA in PBS). Goat F(ab′)2 anti-Human IgG, Mouse ads-PE (Southern Biotech, Cat. 2043-09) was then added and incubated for 20 minutes at 4 degrees C. and washed with FACS buffer. Data acquisition was performed on an FACS Verse (Becton Dickinson), followed by analysis using the FlowJo software (Tree Star) and the GraphPad Prism software (GraphPad).

For test [4], the target named is T3, HLA-DQ2.5 (HLA-DQA1*0501, HLA-DQB1*0201) on Ba/F3 cells (human, UniProt P01909 24-216, limits assumed).
T3 construct: whole, on cells; Expressed from cDNA in mouse Ba/F3 cells; also called Ba/F3-HLA-DQ2.5
Put plainly: FACS on Ba/F3-HLA-DQ2.5 cells. The method, then: as §1, §2

The target of test [5] is T4, HLA-DQ8 (HLA-DQA1*0301, HLA-DQB1*0302) on Ba/F3 cells (human, UniProt P01909 24-216; P01920 33-230, limits assumed).
T4 construct: whole, on cells; Expressed from cDNA in mouse Ba/F3 cells; also called Ba/F3-HLA-DQ8
T4 MHC II alpha: not shown
T4 MHC II beta: not shown
The test is described as follows: FACS on Ba/F3-HLA-DQ8 cells. The method, then:
as §1, §2

In test [6] the target is complex of the invariant chain and HLA-DQ on Raji cells (UniProt P04233 1-296). Put plainly: cell-based or functional assay.
complex of the invariant chain and HLA-DQ on Raji cells, sequence (P04233 whole entry, change not shown, one chain of several): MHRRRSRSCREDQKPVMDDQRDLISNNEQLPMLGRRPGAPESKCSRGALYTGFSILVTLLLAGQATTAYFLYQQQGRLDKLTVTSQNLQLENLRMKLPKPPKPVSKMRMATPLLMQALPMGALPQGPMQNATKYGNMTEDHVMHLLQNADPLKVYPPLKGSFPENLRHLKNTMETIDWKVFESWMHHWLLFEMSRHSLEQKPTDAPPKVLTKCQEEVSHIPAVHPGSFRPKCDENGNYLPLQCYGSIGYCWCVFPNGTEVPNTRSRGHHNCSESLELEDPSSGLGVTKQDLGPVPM

B1: DQN0016 (antibody, human IgG1, kappa, V domains shown)
VH: QSLEESGGDLVKPGASLTLTCTASGFSFSSRYWMCWVRQAPGKGLEWIACIDAGSSGITYYASWANGRFTISKTSSTTVTLQMTSLTAADTATYFCARDAWSTTDGWNTFNLWGPGTLVTVSS
VL: DVVMTQTPASVSAAVGGTVTIKCQASQSIGSNLNWYQQKPGQSPKLLIYSASTLASGVPSRFKGSGSGTEYTLTISNLECADAATYYCQSYYYTGSSAVNNFGGGTKVEIKR
notes: Rabbit B-cell derived variable regions recombined with F1332m heavy and hkOMC light constant regions; expressed in FreeStyle 293-F cells; also called DQN0016cc
A word on the Kd: it is a measure of binding affinity in units of concentration. With B1, the Kd in test [1] is 151 nM. Moreover, the “IC50 (read off the curve)” value in test [2] was ~0.2 µg/mL.

B2: DQN0157 (antibody, human IgG1, kappa, V domains shown)
VH: QSLEESGGDLVKPGASLTLTCTASGFSFSSSYYMCWVRQAPGKGLEWIACIYTGSSGSTYYPSWAKGRFTISKTSSTTVTLQMTSLTAADTATYFCARVRAGSGYYYFNLWGPGTLVTVSS
VL: DIVMTQTPSSVSAAVGGTVTIKCQASQTIYSGLAWYQQKPGQPPKLLIYDASDLASGVPSRFSGSGSGTEFTLAISGVQCDDAATYYCHGDYYGGSGTFFWTFGGGTKVEIKR
notes: Rabbit variable regions with F1332m and hkOMC constant regions; also called DQN0157cc
One may read the koff as a measure of how fast the partners let go of each other. By kon is commonly meant the rate constant with which the complex forms. B2: the binding result in test [3] is “no binding”. In test [1], the Kd amounted to 22.6 nM, the koff turned out to be 0.0033 s⁻¹ and the kon was found to be 146000 M⁻¹ s⁻¹. The “IC50 (read off the curve)” value in test [2] is ~0.1 µg/mL.

B3: DQN0100 (antibody, human IgG1, kappa, V domains shown)
VH: QQQLEESGGGLVKPGASLTLTCKGSGFSFTSGYWICWVRQAPGKGLEWIGCIYTGSSGSTYYASWAKGRFTISRSSTTVTLQMTSLTVADTATYFCAGDPSGASSGWDNLWGPGTLVTVSS
VL: AFELTQTPSSVEAAVGGTVTIKCQASQTIVSWLAWYQQKPGQRPKLLILYASNLASGVSSRFRGSGSGTDYTLTISDLECDDAATYYCQSYYFSTSSPDMYAFGGGTKVEIKR
notes: Rabbit variable regions with F1332m and hkOMC constant regions; also called DQN0100aa
B3: in test [1], the Kd stood at 1.94 nM, the koff was 0.000458 s⁻¹ and the kon was 236000 M⁻¹ s⁻¹. Also, in test [2], the “IC50 (read off the curve)” value was ~0.1 µg/mL.

B4: DQN0092 (antibody, human IgG1, kappa, V domains shown)
VH: QSVEESGGRLVTPGTPLTLTCTVSGFSLSSYYISWVRQAPGKGLEWIGIIYTDGVTDYPNWAKGRFTISKTSTTVDLKITSPTTEDTATYFCARDAASVYGCGYFDLWGPGTLVTVSS
VL: TFKLTQTPASVEAAVGGTVTIKCQASESNGNALAWYQQKPGQPPKLLIYRAFTLASGVPSRLKGSGSGTQFALTISDLECADAATYYCQTYYGSNTDFNAFGGGTKVEIKR
notes: Rabbit variable regions with F1332m and hkOMC constant regions; also called DQN0092hh
Take B4: the binding result in test [3] is recorded as “no binding”; in test [4] it was “binds”; in test [5], “binds”. Moreover, the Kd in test [1] came to 7.28 nM. Besides, the koff in test [1] amounted to 0.00122 s⁻¹. Further, in test [1], the kon turned out to be 168000 M⁻¹ s⁻¹.

B5: DQN0139 (antibody, human IgG1, kappa, V domains shown)
VH: QSLEESGGRLVTPGTALTLTCTVSGFSLSSYAMGWVRQAPGKGLEYIGWTSPGDSAYYASWTKGRFTISRTSTTVELKITSPTTEDTATYFCARDAAYIGHWAFNLWGPGTLVTVSS
VL: DVVMTQTPASVSAPVGGTVTINCQASESIYSNLAWYQQKPGQPPKLLIYGASTLESGVPSRVKGSGYGTQFTLTISDLECADAATYYCQQYYGSSSTAFTFGGGTKVEIKR
notes: also called DQN0139bb
Consider B5, for which the Kd in test [1] was found to be 11.3 nM. Also, the “IC50 (read off the curve)” value in test [2] is ~0.3 µg/mL.

B6: DQN0177 (antibody, human IgG1, kappa, V domains shown)
VH: QSVEESGGRLVTPGTPLTLTCTVSGFSLSSYAMSWVRQAPGKGLEWIGVISYSGRTYDASWAKGRFTISKTSTTVDLKITSPTTEDTATYFCARVGDSYGYAYATVIFTYHFNLWGPGTLVTVSS
VL: DPVLTQTPSSASEPVGGTVTIKCQASESISSSLAWYQQKPGQRPKLLIYDASKLASGVPSRFKGSGSGTEFTLTISGVQCDDAATYYCQHGLSSGSTNRCAFGGGTKVEIKR
notes: also called DQN0177aa
Take B6: in test [1], the Kd was 3.67 nM, the koff was 0.00137 s⁻¹ and the kon came to 374000 M⁻¹ s⁻¹.

B7: DQN0089 (antibody, human IgG1, kappa, V domains shown)
VH: QEQVVEYGGDLVQPEGSLTLTCKASGLDFSSTYYMCWVRQAPGKGLEWIGCIYGGSSDSTYYASWAKGRFTISKTSPTTVTLQMTSLTAADTATHFCATYDYGAVGYDLWGPGTLVTVSS
VL: EVVVTQTPASVEVAVGGTVTIKCQASQNISPYLSWYQQKPGQPPKLLIYKASTLASGVSSRFKGSGSGTQFTLTISDLECADAATYYCQNNYGVSINYGHTFGGGTKVEIKR
Turning to B7, in test [6], the “ratio [MFI (PE/FITC) without Cytochalasin D, Dynasore]/[MFI (PE/FITC) with Cytochalasin D, Dynasore] on Raji cells (invariant chain-mediated internalization)” value was ~3.

The record behind these values is patent US20200040085A1 (Chugai, published 2020).
